The values below come from the DeepSol protein solubility set.

The nature of this data set: soluble on expression in E. coli; label from the status in PepcDB or PDB records.
For the sequence “MSLSRFQFVADHLHAFEVKWLCAGVEVARSSFYAWLAGAEGRAARKAADEALAARIRMVHDEDNTYGAPRITAELNDSVPDGERVNHKRVARVMRDAGIAGYRRRRRVKTTTPDPAKQKVPDLLKRDFTAPAPNEKYVGDITYLPLATGSNLYMATVIDCFSGRVAGWAIAEHMRTELVEDALKAADALRGSLAGAVFHSDHGSQYTSTDFASLCEKLGVTQSMGGVGSSADNALAESFNASLKREVLQDRSHWPDSATCRRQVFRWLVRYNLRRRHSRCRYSSPVSYERSHAPATLPEAAEGHHHHHH”, the “soluble on expression in E. coli” value was “not soluble”.

For the sequence “MAHHHHHHMNDDNTLALLYEGINLIFDKWTILRLAVTNNWGGINSEDKKKKLIEYVHNFVTNNNAKNKLCDYLRDEMSVLFNVDIEDHSDIEIADLILDLYQNLKKKNYDILEKIKNIQIYDISCSQEKNLIQNYEQGDEENMEDEYSSSNYSEYSNEESLDKE”, the “soluble on expression in E. coli” value was “soluble”.

In the case of “MNEQVHARLKALARPMTGEEYLESLRDGREVYFMGERVKDVTTHPAFRNTARMFARWYDRLHELHKEDLERSKDPSGWKWTVPTESGNGWTHPFFVGPRSAEDLLKARDTIAELQRTVYGWGGRSPDYKAAFVGTLGPNAEFYAPYQENARRWYKETQEKLLYWNHAIVNPPVDRHKPVEEVGDVYMHVERETDAGIVVSGAKVVATGSAFTHVNFIAHYGPLPIKDKKFALIFVVPMDAKGVKLISRASYEFIAAKTGSPFDYPLSSRLDENDAILVFDNVLVPWENVFVYGDVEKVNAFFPLSGFVHRFPFQGCTRLAVKLDFIAGLTMKALDVTGASQFRGVQARLGEILTYRNLFWALTEAMARDPMPWVDGYVLPNLWAGLTYRVLAPEVYPKIKDIIERDLASALIYLPSHAKDFQNPQIRRYLDQYVRGNGVDAVTRVKIMKALWDAVGTEFGGRHELYERNYAGNHENIRIEVLGAMEAAGVNEALRAFVDKFLGEYDLEGWKVPDLINPTEA”, the “soluble on expression in E. coli” value was “soluble”.

For “MIQLNLPPYEHRIHQEDESMFIFDSIRRRYVALTPEEWVRQHFVHYLTDVLGYPADLIRNEAQLRIDRRRKRCDTVVYDTNLRPIVLCEYKAPTVSLTQKTMDQILCYNFIFRVPLLLLSNGLQHAACLVDYEQSGYVFLPEIPSYEELTTIIQSNQ”, the “soluble on expression in E. coli” value is “not soluble”.

In the case of “MSCVHYKFSSKLNYDTVTFDGLHISLCDLKKQIMGREKLKAADCDLQITNAQTKEEYTDDNALIPKNSSVIVRRIPIGGVKSTSKTYVISRTEPAMATTKAIDDSSASISLAQLTKTANLAEANASEEDKIKAMMSQSGHEYDPINYMKKPLGPPPPSYTCFRCGKPGHYIKNCPTNGDKNFESGPRIKKSTGIPRSFMMEVKDPNMKGAMLTNTGKYAIPTIDAGRLLFHKLGTMGHKQIDTYFWNRGDVYGATATQITHLREAYAIGKKEKPPFLPEEPSSSSEEDDPIPDELLCLICKDIMTDAVVIPCCGNSYCDECIRTALLESDEHTCPTCHQNDVSPDALIANKFLRQAVNNFKNETGYTKRLRKQLPPPPPPIPPPRPLIQRNLQPLMRSPISRQQDPLMIPVTSSSTHPAPSISSLTSNQSSLAPPVSGNPSSAPAPVPDITATVSISVHSEKSDGPFRDSDNKILPAAALASEHSKGTSSIAITALMEEKGYQVPVLGTPSLLGQSLLHGQLIPTTGPVRINTARPGGGRPGWEHSNKLGYLVSPPQQIRRGERSCYRSINRGRHHSERSQRTQGPSLPATPVFVPVPPPPLYPPPPHTLPLPPGVPPPQFSPQFPPGQPPPAGYSVPPPGFPPAPANLSTPWVSSGVQTAHSNTIPTTQAPPLSREEFYREQRRLKEEEKKKSKLDEFTNDFAKELMEYKKIQKERRRSFSRSKSPYSGSSYSRSSYTYSKSRSGSTRSRSYSRSFSRSHSRSYSRSPPYPRRGRGKSRNYRSRSRSHGYHRSRSRSPPYRRYHSRSRSPQAFRGQSPNKRNVPQGETEREYFNRYREVPPPYDMKAYYGRSVDFRDPFEKERYREWERKYREWYEKYYKGYAAGAQPRPSANRENFSPERFLPLNIRNSPFTRGRREDYVGGQSHRSRNIGSNYPEKLSARDGHNQKDNTKSKEKESENAPGDGKGNKHKKHRKRRKGEESEGFLNPELLETSRKSREPTGVEENKTDSLFVLPSRDDATPVRDEPMDAESITFKSVSEKDKRERDKPKAKGDKTKRKNDGSAVSKKENIVKPAKGPQEKVDGERERSPRSEPPIKKAKEETPKTDNTKSSSSSQKDEKITGTPRKAHSKSAKEHQETKPVKEEKVKKDYSKDVKSEKLTTKEEKAKKPNEKNKPLDNKGEKKKKK”, the “soluble on expression in E. coli” value is given as “soluble”.

As to “MSRARCERCLRPAGHCLCPLIPQLPSRTRVLLLQHPSEVNHALNTARLAALGLNNAELVVGEVFEELPALLDQPGYRACLLFPADDARPLQAYAETDVPLLLVVPDGTWRKARKLLHLNPLLAALPRVTLATGVESRYRLRKAPGPGALSTVEAIVQALQVLEAPASFEPLLRPFEALIEGQIAAMGEDTYQRNHAKSAAALEHHHHHH”, the “soluble on expression in E. coli” value was “not soluble”.

For “MGSDKIHHHHHHMSSSDRYMQRGVSSQKEDVHKAIKSIDKGIYPRAFCKIIPDILGGDPEYCNIMHADGAGTKSSLAYVYWKETGDISVWKGIAQDAVIMNIDDLICVGAVDNILLSSTIGRNKNLIPGEVLAAIINGTEEVLQMLRDNGIGIYSTGGETADVGDLVRTIIVDSTVTCRMKRQDVISNENIKAGNVIVGFASYGQTSYETEYNGGMGSNGLTSARHDVFNNVLASKYPESFDPKVPENLVYSGEMNLTDPYLNVPLDAGKLVLSPTRTYAPLMKEIIHQYKGKLDGVVHCSGGGQTKVLHFTDATTHIIKDNLFDVPPLFQLIQGQSNTPWEEMYKVFNMGHRLEIYTDAAHAEGMIAIAKKFNIEAKIIGRVEAPVAGKRLTITGPQGTEYTYA”, the “soluble on expression in E. coli” value is “not soluble”.

With “MKCPYCGHPDTRVVDSRPSDEGMAIRRRRECPSCGRRFTTYERTQLEPLMVVKRDGRKEPFNPDKLLRGLLLACEKRPVSEEVLRRFAYTFEDQVSGPEITSEEIGLKALAFLKELDHVAYIRFASVYREFDSVERFIEEIRSLASLN”, the “soluble on expression in E. coli” value is on record as “soluble”.

As for “MAYEEHFQQTSEAKYDCLLFDIDDTLYPLSSGLAMEVKKNIQEYMVQKLGIEEDKVQELCLSLYKIYGTTMAGLKAVGYDFDYDDFHRFVHGRLPYSTLKPDPILRNIILSLPIRKVVFTNADKAHAAKIIARLGLEGCFEKIISFETLNPITKTESPVDTKTREIFDIISYMANPDSSIELPKTSVVCKPSEGAFEQVFKMANINPKKTLFFDDSIRNIQTGKRVGLHTVWVGTSHREEGVDIALEHIHNIREALPQLWDAVDDKAKEIRTRQKVAIETIA”, the “soluble on expression in E. coli” value is recorded as “not soluble”.

Take “MVRKVNIIKGNEGQGKRIKFVQLIFVDINGMPKGMEVPITRLEEAIEEGIAFDGSSVPGFQGIEDSDLVFKADPSTYVEVPWDNVARVYGYIYKDGKPYEADPRGVLRRTLERLEKLGIKVYIGPEPEFYLFKKNGSWELEIPDVGGYFDILTLDKAKDIKREIAEYMPYFGLTPEVLHHEVGKAQHEIDFRHDEALKTADNIVSFKYIVKAVAEMHGLYATFMPKPIYGMPGNGMHLHISLWKDGENIFKGEEGLSETALYFIGGLLKHAKALAAVTNPTVNSYKRLVPGYEAPVYISWGYKNRSALIRVPAFWGNGARIEYRCPDPSANSYLAFAAILMAGLDGIKHKIEPFAYVEENVYEMDEKRREEIGIDMLPENLGEALDELERDKVVKEALGGAYRNFVGYKRKEWEEYLDYLEAKNLPKDTKNVTEWELERYFFI”: the “soluble on expression in E. coli” value is listed as “soluble”.

On to “MNNLMPAELAPQINAHFNGKFEVELKYRLADREAFWARLSAKSPEVMLEDNLEHDCYFDSPSASLAAQHKSLCIREMQPSGIRLWIVKGPEKDRCEAVNITDANKAKSMLRTLGYQCVLEIKKRRSVYFLGQFHLTLDRLEGLGDFAELAIMTDDEAMLPVYEAQLVALAAELGLNESQREFLSYRQLQQALQQLEHHHHHH”, for which the “soluble on expression in E. coli” value is reported as “not soluble”.

“PVAVYTTHDPQALKITGNRLSCEWLRIPPGTNLSKSAHEGERPEFFKLFKDGVEIPPEKMPSQLSAAGIEVNDCELDIVSADGRIRHVLGNARPLRDEN”: the “soluble on expression in E. coli” value is listed as “not soluble”.

“MQQFHIRRLREEDIPLLKGLLVELDTSHYEAEPNFYRSPEEMAQLREERGVFDKYFDDSMIAFIACSHRQVVGFISGTVRDIDSMVSVAKRVGFVNELVVSESHRNLGIGLSLMDKIESDLCNQGIEEIGLTVASFNHEGEDFYHKMGYRVMTKMMSKRVKDLEHHHHHH”: the “soluble on expression in E. coli” value was “soluble”.

In the case of “MSISGLFILDLKGNVVISRNYRGDVDMSCIEKFMPLLVEKEDEGSASPVLVHQGISYTYIKYMNVYLVTISKKNTNVILVLSALYKIVEVFCEYFKTLEEEAVRDNFVIIYELFDEMLDFGYPQTTESKILQEFITQQGNRLETVRPPMAVTNAVSWRSEGIKYRKNEVFLDVIESVNMLANAQGTVLRSEIVGSIRFRVVLSGMPELRLGLNDKVFFQQSGASSRRGNSGKGVELEDIKFHQCVRLSRFDSERTISFIPPDGEFELMSYRLTTQVKPLIWVEAAVERHAHSRVEYMVKAKSQFKRQSVANHVEVIIPVPSDVSAPKFKTGAGTAKYVPELNAIVWSIRSFPGGREYIMRSSFMLPSIGSEELEGRPPINVKFEIPYYTTSGLQVRYLKIIEKSGYQALPWVRYVTQNGDYQMRMT”, the “soluble on expression in E. coli” value is listed as “not soluble”.

In the case of “MAHHHHHHMLRGLVNADALTSEQEEHIDQLQHEIDEIWNRRGNYQVDPDAWETMPFFMENITEEDIDKNANCAALASIVYEEVPPDEIAENRKEHGNRALNMALNPNQERRENLARAACYSYTEALQAKGKNTKLSSTIYANRSLAQFIVGNYGHALADAQRSIILDPNYRKAYYRAAKCAFALKKYDMGLQMLEKGRRVVDPPMDAAAQAEFLEMETNCLQGKEQQASEEAKQRRAARSQAAKVSNVARAITSSGIKISSRAEVTSEQMGVYGNPKPYFDTDGMLHVPLLFMYDEYQQTDIMHDVACDVCAAELLDELMPFPWDDRGRYQRLADIVVFFKIDDGANDVQYYEVDQSWPLLEVFREETYEMPQLMPVLHVVCKTSELVDRLEIHRVA”, the “soluble on expression in E. coli” value was “soluble”.

With “MGSDKIHHHHHHMRREKKKGSDDQMADENEEYLMETRFSAEHIGLKLLEKKIITEQQFEDALRRQKSRGGGLGDVLIELGYLTEERLNQLLNAFPSVPKTIEDTGLDASFLADLVLKHSLSLREFRLADMVRRVKLPLSIVDSIVETLQREKMLEVKGGDGLARATYRFSITGIGENRAAGLLEICRYVGPAPVSLSDYREKVLTQSIQRVVVNPLTLKNALSHLVINPDLLKALGPALTSGQTIFLYGPTGNGKSSIAEAIGNVLPGTIFVPYAVYVEGELITVFDPVNHVPAPSETEDGKMDHRWLQIRRPVIMTGGELTLRTLDLEFNPISKFYIAPLQMKANNGLFIIDDFGRQQIEPKMLLNRWIVPLEKRVDFLTLHTGMKFSIPFDQLVIFATNLKPMELADEAFLRRIRYKIFIDYPSKEDFEVIFRKACEMKNVAFDPKAFQFLQDIYEKLGIQRSANHPRDLLEHIIDQSRYYGQEPELTVEGVSAAWEQNFIKNF”, the “soluble on expression in E. coli” value is listed as “not soluble”.

Take “MDPLRAQQLAAELEVEMMADMYNRMTSACHRKCVPPHYKEAELSKGESVCLDRCVSKYLDIHERMGKKLTELSMQDEELMKRVQQSSGPA”: the “soluble on expression in E. coli” value was “soluble”.
